For one assay, the target named is collagen type I (mouse, UniProt P11087 152-1207; Q01149 86-1125). Description: cell-based or functional assay.
The target of assay [1] is T1, PSMA (UniProt Q04609 1-750, limits assumed).
T1 construct: whole, on cells; also called PSMA in LNCaP cell lysate; PSMA on LNCaP cells
Briefly: indirect ELISA on coated LNCaP cell lysate.
Description: Briefly, LNCaP cell lysates were coated in a 96-well plate and 5% BSA was used as blocking agent. […] The interaction between ProCA32 variants and PSMA in cell lysates was quantified by ELISA using HRP-conjugated goat-anti-rabbit secondary antibody and one step ELISA kit.

Assay [2] deals with T1, PSMA. Briefly: assay not given; presumably the ELISA on LNCaP cell lysate of FIG. 10. Background: ELISA stands for enzyme-linked immunosorbent assay.
The target of a further assay is T2, CXCR4 (UniProt P61073 1-352, limits assumed).
T2 construct: whole, on cells; also called chemokine receptor type 4; CXCR4 on Mel290 cells
T2 sequence (P61073 whole entry): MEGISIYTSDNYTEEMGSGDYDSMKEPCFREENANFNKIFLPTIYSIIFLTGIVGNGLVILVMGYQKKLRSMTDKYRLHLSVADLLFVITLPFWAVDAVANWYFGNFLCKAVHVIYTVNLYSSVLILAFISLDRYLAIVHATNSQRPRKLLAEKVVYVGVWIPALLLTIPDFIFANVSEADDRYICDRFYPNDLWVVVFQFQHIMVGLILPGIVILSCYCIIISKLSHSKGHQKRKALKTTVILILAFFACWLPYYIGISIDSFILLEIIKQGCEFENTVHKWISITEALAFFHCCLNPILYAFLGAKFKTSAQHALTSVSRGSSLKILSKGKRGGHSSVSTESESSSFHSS
Description: binding to CXCR4 positive cells (FIGS. 47A-47B).

T1 sequence (Q04609 whole entry): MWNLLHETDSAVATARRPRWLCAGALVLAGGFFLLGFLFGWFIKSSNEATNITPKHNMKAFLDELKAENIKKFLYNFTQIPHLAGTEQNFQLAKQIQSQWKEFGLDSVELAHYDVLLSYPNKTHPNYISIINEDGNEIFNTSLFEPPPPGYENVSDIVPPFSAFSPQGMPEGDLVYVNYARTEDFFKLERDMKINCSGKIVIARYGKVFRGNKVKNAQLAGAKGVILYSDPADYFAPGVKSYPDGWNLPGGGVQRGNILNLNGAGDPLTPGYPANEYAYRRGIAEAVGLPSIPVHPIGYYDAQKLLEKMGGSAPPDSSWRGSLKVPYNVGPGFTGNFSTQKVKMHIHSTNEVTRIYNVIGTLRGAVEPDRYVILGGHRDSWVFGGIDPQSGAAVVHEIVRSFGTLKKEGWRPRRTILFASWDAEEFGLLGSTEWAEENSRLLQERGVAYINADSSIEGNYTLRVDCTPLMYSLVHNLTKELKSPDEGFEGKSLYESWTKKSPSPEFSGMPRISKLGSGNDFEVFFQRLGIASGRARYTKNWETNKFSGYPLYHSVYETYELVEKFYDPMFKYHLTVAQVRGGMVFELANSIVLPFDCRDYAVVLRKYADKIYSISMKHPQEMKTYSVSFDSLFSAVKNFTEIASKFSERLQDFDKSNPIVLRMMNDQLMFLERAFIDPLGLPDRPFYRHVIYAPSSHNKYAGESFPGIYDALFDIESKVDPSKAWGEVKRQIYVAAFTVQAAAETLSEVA
Chain of collagen type I (P11087 152-1207, chain 1 of 2): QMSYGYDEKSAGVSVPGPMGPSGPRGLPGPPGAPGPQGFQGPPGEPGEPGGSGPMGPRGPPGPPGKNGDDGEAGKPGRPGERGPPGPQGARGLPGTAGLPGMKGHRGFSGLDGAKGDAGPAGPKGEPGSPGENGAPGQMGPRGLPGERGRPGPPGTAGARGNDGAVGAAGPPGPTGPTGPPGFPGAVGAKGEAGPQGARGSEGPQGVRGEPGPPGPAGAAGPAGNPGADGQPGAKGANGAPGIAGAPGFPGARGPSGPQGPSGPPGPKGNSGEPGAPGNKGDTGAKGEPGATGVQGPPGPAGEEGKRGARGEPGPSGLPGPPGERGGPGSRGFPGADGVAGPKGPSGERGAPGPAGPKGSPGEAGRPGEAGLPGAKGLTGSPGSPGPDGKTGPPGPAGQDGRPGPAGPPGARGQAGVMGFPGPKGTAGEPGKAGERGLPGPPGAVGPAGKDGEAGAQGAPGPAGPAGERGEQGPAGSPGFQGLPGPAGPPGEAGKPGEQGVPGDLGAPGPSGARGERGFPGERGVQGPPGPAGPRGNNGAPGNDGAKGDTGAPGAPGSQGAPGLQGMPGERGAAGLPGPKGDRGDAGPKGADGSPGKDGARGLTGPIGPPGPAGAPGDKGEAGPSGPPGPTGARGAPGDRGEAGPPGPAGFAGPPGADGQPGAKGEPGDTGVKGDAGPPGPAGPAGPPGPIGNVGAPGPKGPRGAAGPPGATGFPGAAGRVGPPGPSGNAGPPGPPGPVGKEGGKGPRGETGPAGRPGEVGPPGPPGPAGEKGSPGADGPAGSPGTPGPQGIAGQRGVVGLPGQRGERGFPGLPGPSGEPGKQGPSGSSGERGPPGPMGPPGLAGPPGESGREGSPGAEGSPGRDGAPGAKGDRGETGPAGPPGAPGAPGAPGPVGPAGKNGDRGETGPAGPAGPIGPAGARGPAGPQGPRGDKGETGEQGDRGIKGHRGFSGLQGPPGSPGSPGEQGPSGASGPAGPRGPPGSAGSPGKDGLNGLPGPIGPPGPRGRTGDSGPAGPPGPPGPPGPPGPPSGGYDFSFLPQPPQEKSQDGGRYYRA
Chain of collagen type I (Q01149 86-1125, chain 2 of 2): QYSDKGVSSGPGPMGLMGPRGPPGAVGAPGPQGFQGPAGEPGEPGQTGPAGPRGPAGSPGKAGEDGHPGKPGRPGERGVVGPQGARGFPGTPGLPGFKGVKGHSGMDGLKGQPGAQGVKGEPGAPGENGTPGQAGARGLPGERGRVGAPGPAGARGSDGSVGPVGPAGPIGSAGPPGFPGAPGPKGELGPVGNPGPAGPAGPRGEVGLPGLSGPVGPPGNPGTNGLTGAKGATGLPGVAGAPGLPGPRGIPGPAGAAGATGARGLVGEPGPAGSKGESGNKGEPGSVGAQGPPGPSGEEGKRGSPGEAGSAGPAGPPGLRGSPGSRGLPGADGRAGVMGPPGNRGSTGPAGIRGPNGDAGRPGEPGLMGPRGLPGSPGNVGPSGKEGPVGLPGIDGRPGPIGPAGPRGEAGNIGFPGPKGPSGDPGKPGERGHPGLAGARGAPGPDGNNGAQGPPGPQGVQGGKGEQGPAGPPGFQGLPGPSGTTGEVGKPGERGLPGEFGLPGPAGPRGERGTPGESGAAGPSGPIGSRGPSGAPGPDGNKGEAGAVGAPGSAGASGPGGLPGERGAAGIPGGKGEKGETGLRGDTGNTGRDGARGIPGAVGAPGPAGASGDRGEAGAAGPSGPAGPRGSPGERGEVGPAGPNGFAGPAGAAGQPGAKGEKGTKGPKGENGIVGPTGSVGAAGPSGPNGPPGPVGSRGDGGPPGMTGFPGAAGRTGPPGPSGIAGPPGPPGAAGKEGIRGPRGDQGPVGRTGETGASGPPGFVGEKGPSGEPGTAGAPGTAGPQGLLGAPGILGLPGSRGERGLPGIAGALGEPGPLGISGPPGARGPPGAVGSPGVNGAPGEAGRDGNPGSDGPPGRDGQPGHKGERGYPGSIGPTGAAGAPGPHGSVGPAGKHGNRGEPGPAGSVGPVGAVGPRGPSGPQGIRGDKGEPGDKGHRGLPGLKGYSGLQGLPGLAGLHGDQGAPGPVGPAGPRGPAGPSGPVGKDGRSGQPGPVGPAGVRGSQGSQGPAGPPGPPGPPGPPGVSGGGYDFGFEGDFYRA

B1: rat ProCA32.collagen (designed binder)
chain: MSMTDLLSAEDIKKAIGAFTAADSFDHKKFFQMVGLKKKSADDVKKVFHILDKDKDGFIEEDELGSILKGFSSDARDLSAKETKTLMAAGDKDGDGKIGVEEWSTLVAESGGGKKWHCYTYFPHHYCVYG
modifications: Used as a contrast agent loaded with Gd3+; the metal ions are not carried by the letters.
As for B1, in the assay with collagen type I, the “Gd^3+ injection dosage per gram of tissue in fibrotic liver, against rProCA32” value was about 2 fold.

B2: ProCA32 (other)
chain: SMTDLLNAEDIKKAVGAFSATDSFDHKKFFQMVGLKKKSADDVKKVFHMLDKDKDGFIEEDELGFILKGFSPDARDLSAKETKMLMAAGDKDGDGKIGVEEWSTLVAES
notes: Control without a targeting moiety; also called non-targeted ProCA32; ProCA32 itself without targeting moiety
With B2, in the assay with PSMA [1], the binding result is reported as “no binding”.

B3: ProCA32.564.PSMA (designed binder, not shown: small tags and cut ends)
chain: MSMTDLLNAEDIKKAVGAFSATDSFDHKKFFQMVGLKKKSADDVKKVFHMLDKDKDGFIEEDELGFILKGFSPDARDLSAKETKMLMAAGDKDGDGKIGVEEWSTLVAESLSFFSCWLRRSFSLT
notes: Fluorescein-labelled in the anisotropy assays, unlabelled in the ELISA
As usually defined, the EC50 is the midpoint of the concentration-response curve. As for B3, the EC50 with PSMA [2] came out at 520 nM. This lies in the sub-micromolar range.

B4: ProCA32.V1.CXCR4 (designed binder)
chain: MSMTDLLNAEDIKKAVGAFSATDSFDHKKFFQMVGLKKKSADDVKKVFHMLDKDKDGFIEEDELGFILKGFSPDARDLSAKETKMLMAAGDKDGDGKIGVEEWSTLVAESLGASWHRPDKCCLGYQKRPLP
notes: also called ProCA32.CXCR4
One may read the Kd as the free concentration of one partner at which half of the binding sites on the other are occupied at equilibrium, for simple one-to-one binding. Lower therefore signals higher affinity. Regarding B4, in the assay with CXCR4, binding was characterised by a dissociation constant (Kd) of 1840 nM.

The values are drawn from patent US20260216379A1 (GEORGIA STATE UNIVERSITY RESEARCH FOUNDATION, published 2026).
